These results are taken from the DeepSol protein solubility set.

The data set can be described thus: soluble on expression in E. coli; label from the status in PepcDB or PDB records.
Take “MEFTLLGWPEDGHRLRLDYKQFAYAGKFVMTSTGKAVIGDDGVVAAAAFDADRTDPDTLCVRYITVRQDRQGDRLGARLLRFVRERATERGFEHVSIGVNNPFSYQAAYRAGFCFSGAESGMAELDLVWPGDRSTERYQAGLDLFRERDLSPDEESFLAAKADADPPTVLNEWAEQPSARTD”: the “soluble on expression in E. coli” value is “not soluble”. With “GSDELKWNKGYSLPNLLEVTDQQKELSQWTLGDKVKLEEGRFVLTPGKNTKGSLWLKPEYSIKDAMTIEWTFRSFGFRGSTKGGLAFWLKQGNEGDSTELFGGSSKKFNGLMILLRLDDKLGESVTAYLNDGTKDLDIESSPYFASCLFQYQDSMVPSTLRLTYNPLDNHLLKLQMDNRVCFQTRKVKFMGSSPFRIGTSAINDASKESFEILKMKLYDGVIEDSL” the entry was “soluble”; with “MEQIGLIGYGSMADMIARQLLKHEQIKENELFIETRTKGERLRALMSDYPNVSADPLENWANTCQLILICVPPLHVIETMRRLYPYVNRNTHIVSIAAGVPLRLLEAETEAGISRVIPAITSEAEAGISLVVHSEALAAEKKERLNELLSVFSRVREIKESNLDVASNLTSSAPGFIAAIFEELALSAVRNSSLSKEEAFDFLIHSLYGTGKMLIEKNMSFEETLERVATKGGITGEGAEVIHASVPDVFDEVFERTLRKYELLTEQVGKQTLEHHHHHH”, “soluble”; with “MKLSESRGETEKHRRQQHFEHELKNMISSLTHMGGDKAGPSQYDEEEDGIRVITLSGSNLGATMKTELDNNHGDRDQNGDHELDFLSTYVNSNFQAVNNSIMIGAKYETHDPGVHLDISGDVEKPSVKIPARSSRGKKGKTPARSDRRESEHTN”, “soluble”. Then “MKVGINGFGRIGRQVFRILHSRGVEVALINDLTDNKTLAHLLKYDSIYHRFPGEVAYDDQYLYVDGKAIRATAVKDPKEIPWAEAGVGVVIESTGVFTDADKAKAHLEGGAKKVIITAPAKGEDITIVMGVNHEAYDPSRHHIISNASCTTNSLAPVMKVLEEAFGVEKALMTTVHSYTNDQRLLDLPHKDLRRARAAAINIIPTTTGAAKATALVLPSLKGRFDGMALRVPTATGSISDITALLKREVTAEEVNAALKAAAEGPLKGILAYTEDEIVLQDIVMDPHSSIVDAKLTKALGNMVKVFAWYDNEWGYANRVADLVELVLRKGV”, with “soluble”; and “MGSDKIHHHHHHMNRRDFLKSALITGAALGLPAGMDPLLTVLKAAERPDLAVVRGTPPAAITRAAIDSLGGMKRFVSRGDVVVVKPNIGWDRTPEYAANTNPEVVGAVVRLCFEAGAKQVKVFDRPVNDPRRTYRQSGIAAAASALGASVLFTDSRKFKDMRINGSSLKSWPLYTEVFEADKVINIPIAKTHGTSKLTLGMKNWMGVMGGWRGRIHQRIDESLVDLATFIKPTLTILDAVRILTDNGPQGGNLADVRRLNMVIAGTDAVAVDAFGATLFGMKPAELGFVRIGHQRRLGSMDLAGMNIRRITL”, with “not soluble”.

As to “MGKNLSLRQDDAQHALSANTSSAYNSVYDFLRYHDRGDGLTVNGKTSYSIDQAAAQITRENVSWNGTNVFGKSANLTFKFLQSVSSIPSGDTGFVKFNAEQIEQAKLSLQSWSDVANLTFTEVTGNKSANITFGNYTRDASGNLDYGTQAYAYYPGNYQGAGSSWYNYNQSNIRNPGSEEYGRQTFTHEIGHALGLAHPGEYNAGEGDPSYNDAVYAEDSYQFSIMSFWGENETGADYNGHYGGAPMIDDIAAIQRLYGANMTTRTGDSVYGFNSNTDRDFYTATDSSKALIFSVWDAGGTDTFDFSGYSNNQRINLNEGSFSDVGGLKGNVSIAHGVTIENAIGGSGNDILVGNSADNILQGGAGNDVLYGGAGADTLYGGAGRDTFVYGSGQDSTVAAYDWIADFQKGIDKIDLSAFRNEGQLSFVQDQFTGKGQEVMLQWDAANSITNLWLHEAGHSSVDFLVRIVGQAAQSDIIV”, the “soluble on expression in E. coli” value is given as “soluble”. As to “MGSDKIHHHHHHMKGGTSKFKTHTETLYKKKKWSSVSEKRPQKCPSQCLESKQPQVSVLGKRRRASQTPAQETLESEWPQKAKRKKRRREPQTPAQETLESEWPQKAKKKKRRGEPQTPTQESLESEQPPVSLLGKRRRESQTPAQENSESEQPRKAKRRRKKRKGSQQPTSSLLKTPETFLKAKKTTSAHKKKKNSVLEVDMETGIILVDKENMENLLETSRKDVDIVYVDMSKGQRSAKVRETGELPAAKPQEHGCRELLGDVRSRKKQKHLQKVAPWDVVQGSQPESISLPPSEPLSSEDLEGKSTEAAVFCKKKSKKNVFRSQELEPIPDSLDDSETISERLDSTHHGGAVGAGEECESTKESHSIKKKSKKKKHKSVALATSSDSASVTDSKAKNALVDSSEGSGAVREEDVDHRPAEAEAQACSTEKHREAMQRLEPTHEEESNSESASNSAARHISEDRRESDDSDVDLGSAVRQLREFIPDIQERAATTIRRMYRDDLGRFKEFKAQGVAIRFGKFSAKENKQIEKNVQDFLSLTGIESADKLLYTDRYPEEKTLITNLKRKHAFRLHIGKGIARPWKLVYYRAKKIFDVNNYKGRYNEEDTKKLKAYHSLHGNDWKKIGAMVARSSLSVALKFSQIGGTRNQGAWSKAETQRLIKAVEDVILKKMSPQELRELDSKLQEDPEGRLSIVREKLYKGISWVEVEARVETRNWMQCKSKWTEILTKRMTHGGFVYRGVNALQAKITLIERLYELNVNDANEIDWEDLASAIGDVPPPFVQAKFYKLKAACVPFWQKKTFPEIIDYLYKNSLPLLKEKLDKKMKKKDGQIQTPAAPKQDFLFKDIFHCDDDSDEGSPEEPSASDVQ”, the “soluble on expression in E. coli” value is on record as “not soluble”. Then “MSLALRLIERDPYEHPERLRQLQQELEAFRGQLGDVGALDTVWRELQDAQEHDARGRSIAIARCYSLKNRHQDVMPYDSNRVVLRSGKDDYINASCVEGLSPYCPPLVATQAPLPGTAADFWLMVHEQKVSVIVMLVSEAEMEKQKVARYFPTERGQPMVHGALSLALSSVRSTETHVERVLSLQFRDQSLKRSLVHLHFPTWPELGLPDSPSNLLRFIQEVHAHYLHQRPLHTPIIVHCSSGVGRTGAFALLYAAVQEVEAGNGIPELPQLVRRMRQQRKHMLQEKLHLRFCYEAVVRHVEQVLQRHGEGHHHHHH”, with “soluble”. “MGSDKIHHHHHHMNIAEIEVTHKVKEKEWKEFLSRSEYATVYHTPEWKKTLEESFGYKPYYLFVKDESDLIVGMLPLFYVKSKLTGNRLSSLPFSHISGPVGDKATKNFLISEAINLYKNLGASYLEIRDRVEDNRFLSKNMFSTYILELNPNIEEVWKQLHKGSVRRAIKKSEKSGVVVDTAKDIESLKEFYDLNCVGKRKIGVPCHPWKFFKNLFRFMNDYISLYVAKYQNNIIGGGIMIYYKDTVIYGYGAAHPHYLKLYPYNAFLWKSIKDACLSRYKYFDLGRAHYNVERGLMDFKRRWGTIEKKLYYSYYSKNKDLKILDMSGLKYRLGTKVIRKMPMPIYKKFSDRIFGSLG”: the “soluble on expression in E. coli” value was “not soluble”.

As for “MGSDKIHHHHHHMSMNSEPTPAEAFFLEGNRLLAASECRAAEACFREALALAPDFAEAHANLGMLLDQEGMAAEAERQYRLALALNPRLGHTHSNLGVLLANQKRFEEAESAYLSAIELEPDSPAAWSNLGVLQACRKQEREAEESYRTALRLDPDYHRASFNLSYLLLRQGRFDEGWSLLESRNRRWFARLEEHLPCPRWRGEDLQGRSLLIGLEAGHGDMIQFCRYAPLLKDRGAARITLVCHVALKDLLKTLDGVDTVISFDEILPDDAWDFWTPAMSIPCYCRTRLDSIPARIPYLHADPGLAEQWAAMLEREWAGPEMRIGLAWKGNPHFENDGDRSLPHLKTLEPLGAVAGVRFFSLQKGAGEEEAAQPPAGLPVVNLMRHIAGFADTAALVANLDLVITVDTAVAHLAGALGTECWVLLPEYRTDWRWLTGRTDSPWYPGVMRLFRQPRVGDWETVVAEVGEALRLFAARPRSPRGTR”, the “soluble on expression in E. coli” value is “not soluble”. For “MGSDKIHHHHHHMNESERKIVEEFQKETGINFKNEELLFRALCHSSYANEQNQAGRKDVESNEKLEFLGDAVLELFVCEILYKKYPEAEVGDLARVKSAAASEEVLAMVSRKMNLGKFLFLGKGEEKTGGRDRDSILADAFEALLAAIYLDQGYEKIKELFEQEFEFYIEKIMKGEMLFDYKTALQEIVQSEHKVPPEYILVRTEKNDGDRIFVVEVRVNGKTIATGKGRTKKEAEKEAARIAYEKLLKERS”, the “soluble on expression in E. coli” value was “soluble”. For “MGSDKIHHHHHHAPLTFDETAFREDVKTLASDAFGGRAPLSDGEQKTLDYLTHAFKSMGLKGAFNGEYLQAVPMAKITADQSMVLKVGELSFTSGEDFTARTQRVVPKVELSGSDMVFVGYGINAPEYGWNDYAGIDVRGKTVVLLVNDPGFATQDPKVFKGNAMTYYGRWTYKYEEAARQGAEAVFIVHEDAPAAYGWGVVKNSNTNTKFTLVDGNNNQSQVGVMGWLQYAAAKQILAASGQDIEALKAAAKAPGFKAVPLTVQADLTLSNHIERAESHNVAAILPGNKNADEAVVMHAHWDHLGQIEEEGKTIILNGAVDNATGVAGVLALARHYAALPEAEKPARSMIFSAFTAEETGLIGAQYFAENPPLPTSKLVAFLNIDGMNVGEGVDYILRYGEGVSELETMLSDAAKAQNRQVKADPRPQNGLMFRSDHFALAQQGVPGLLFMSLGDTDPDYIAHKYHKGADDYSPDWQLGGVKQDLKLIEQILSRLANGSEWPKWLEESDFKARRAKDGR”, the “soluble on expression in E. coli” value is listed as “not soluble”. With “MGSDKIHHHHHHMPEQQKSVTGTSLFERYTLSQAYDEMFTAEGDIRPAYSELARLLCSISPAELQQRQRYADLTFLNQGITFTVYGNDAGVERVFPYDLLPRIIAADEWQHIERGLHQRIVALNLFLHDVYHNENILRDGIIPRHLVYSCRHYRREMRGLTVPRGVYTAIVGTDLVRLPDGQFVVLEDNLRVPSGVSYMLTNRAVMKRALPRLFGAYGVRPIDHYGQALLATLRALAPAHRPEPTIVLLTPGVFNSAYFEHTFLARQMGIELVEGRDLLVHNNIVYMRTTKGLQRVDVIYRRIDDDFLDPMIFRPDSVLGVPGLFNAYRAGTVVLANAIGTGVADDKAIYAYVPDIIRYYLGEEPILPNVTTYLCDRPDECAYVLEHLGDLVVKAVGESGGYDMLIGPHSTREEQAQFAERIRAQPRNYIAQPTLQLSQAPCFIDGVIEPRHVDLRPFVLFDGERTTIVPGGLTRVALRRGSLVVNSSQGGGSKDTWVLY” the entry was “not soluble”; with “MPLRVDTLTWLSTQAAPGRVMVWPAVRPGICPGPDVWRIPLGPLPHEFRGWIAPCRPRLGASEAGDWLRRPSEGALPGPYIALRSIPKLPPPEDISGILKELQQLAKELRQKRLSLGYSQADVGIAVGALFGKVLSQTTICRFEAQQLSVANMWKLRPLLKKWLKEVEAENLLGLCKMEMILQQSGKWRRASRERRIGNSLEKFFQRCPKPTPQQISHIAGCLQLQKDVVRVWFYNRSKMGSRPTNDASPREIVGTAGPPCPGAPVCFHLGLGLPVDIPHYTRLYSAGVAHSSAPATTLGLLRF”, “soluble”; with “MPQLSRYSDEHVEQLLSELLSVLEKHKAPTDLSLMVLGNMVTNLINTSVAPAQRQAIANSFARALQSSISEDNAH”, “not soluble”.

On to “MSLKAIIFDMDGVLVDSMRFQADAWAKAFQDAGINIVREDIYELEGSNDKRLIKSIFKEARKEPEPEHFERLPEKKRDLLEFDRIKPFEGIPECLDELKRHFRLAMVSGSNRNTVGKIVDKFFSGYFDVVINGSDLERGKPDPDPYLKALEMLGLTKNECMVIENAPLGITAAKRAGLYCVAVASMLEPEKVQHADLVLEDHASLFDYLKSLIPGKPQTEGHHHHHH”, for which the “soluble on expression in E. coli” value is “soluble”. With “MFPWIVIHEGNLFDTQKPLKCAILSEFQSMVSESDGPSSSKTGGISSSMTHPLDMLGDTYGIFDLMMDTSSIKPILTEILCSSDHWRRNGRHPVVLSTFPFSAIAREINASCSEALFYEIANVERMIVGDSRHAMNLGDQLAFEIFSTVMMISDLDIFLLGASNLYLSDRRGFNRDLTDVFWSSFISSLLMRNDRNRLFILIKGGLKYVSDLLSEYIVARISMELSDQTIRIRLIYL” the entry was “soluble”.
